We go through two molecules from paper PMC11931385, “Structural and functional analysis of cancer-associated missense variants in the retinoblastoma protein pocket domain” (The Journal of Biological Chemistry, 2025).

No end group written: not given here. TMR = tetramethyl rhodamine dye

Holding throughout (test): fluorescence polarisation; 25 °C; unlabeled Rb^P titrated against 1.5 nM TMR-E2F1^TD or 7.5 nM TMR-E7^LxCxE; 25 mM Tris pH 8.0, 200 mM NaCl, 1 mM DTT, 0.1% Tween-20; 2 min incubation; quadratic fit; apparent Kd for the variants, Kd for WT
What all share (details): both partners purified
For orientation: In fluorescence polarisation assays a small probe gives low polarisation when free and higher when bound to something large.

In experiment [1] the target is T1, Rb^P A525G (human, UniProt P06400 380-788, A525G).
T1 construct: also called variant 20
T1 sequence (looked up): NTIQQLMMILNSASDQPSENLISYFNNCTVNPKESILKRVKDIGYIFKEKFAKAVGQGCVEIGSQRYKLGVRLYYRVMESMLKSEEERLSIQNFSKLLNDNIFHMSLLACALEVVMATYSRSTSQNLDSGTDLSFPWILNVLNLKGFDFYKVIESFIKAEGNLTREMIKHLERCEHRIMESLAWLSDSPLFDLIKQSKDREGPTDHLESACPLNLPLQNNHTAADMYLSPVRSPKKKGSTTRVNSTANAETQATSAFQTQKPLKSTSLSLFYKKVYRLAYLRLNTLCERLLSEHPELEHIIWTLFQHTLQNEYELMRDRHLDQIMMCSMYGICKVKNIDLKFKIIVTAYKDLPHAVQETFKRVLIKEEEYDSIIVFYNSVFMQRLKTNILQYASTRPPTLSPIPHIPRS

Experiment [2] deals with T2, Rb^P R556Q (human, UniProt P06400 380-788, R556Q).
T2 construct: also called variant 30
T2 sequence (looked up): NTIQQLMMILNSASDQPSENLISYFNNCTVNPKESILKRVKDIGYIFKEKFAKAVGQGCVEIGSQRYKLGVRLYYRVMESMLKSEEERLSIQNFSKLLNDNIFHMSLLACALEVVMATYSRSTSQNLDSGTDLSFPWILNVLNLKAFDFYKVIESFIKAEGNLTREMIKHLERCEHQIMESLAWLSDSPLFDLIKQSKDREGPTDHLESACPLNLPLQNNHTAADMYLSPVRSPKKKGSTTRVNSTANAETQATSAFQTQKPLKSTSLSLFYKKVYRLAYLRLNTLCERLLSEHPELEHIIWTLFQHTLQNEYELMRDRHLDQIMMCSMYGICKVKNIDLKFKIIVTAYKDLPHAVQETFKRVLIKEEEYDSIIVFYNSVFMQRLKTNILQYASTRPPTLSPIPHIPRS

The target in experiment [3] is T3, Rb^P S474R (human, UniProt P06400 380-788, S474R).
T3 construct: also called variant 13
T3 sequence (looked up): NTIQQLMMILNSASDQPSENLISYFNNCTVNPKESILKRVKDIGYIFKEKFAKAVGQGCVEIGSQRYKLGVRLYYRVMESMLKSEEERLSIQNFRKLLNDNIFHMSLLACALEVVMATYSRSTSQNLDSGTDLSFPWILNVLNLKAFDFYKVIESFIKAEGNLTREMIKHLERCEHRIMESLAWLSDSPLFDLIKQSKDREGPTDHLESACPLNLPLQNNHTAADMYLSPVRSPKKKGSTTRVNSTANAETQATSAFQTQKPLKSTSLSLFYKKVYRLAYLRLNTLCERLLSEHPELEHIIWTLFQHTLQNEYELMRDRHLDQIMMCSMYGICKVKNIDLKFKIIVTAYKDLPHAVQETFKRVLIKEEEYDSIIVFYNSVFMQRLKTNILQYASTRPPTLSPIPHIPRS

The target of experiment [4] is T4, Rb^P H673Y (human, UniProt P06400 380-788, H673Y).
T4 construct: also called variant 55
T4 sequence (looked up): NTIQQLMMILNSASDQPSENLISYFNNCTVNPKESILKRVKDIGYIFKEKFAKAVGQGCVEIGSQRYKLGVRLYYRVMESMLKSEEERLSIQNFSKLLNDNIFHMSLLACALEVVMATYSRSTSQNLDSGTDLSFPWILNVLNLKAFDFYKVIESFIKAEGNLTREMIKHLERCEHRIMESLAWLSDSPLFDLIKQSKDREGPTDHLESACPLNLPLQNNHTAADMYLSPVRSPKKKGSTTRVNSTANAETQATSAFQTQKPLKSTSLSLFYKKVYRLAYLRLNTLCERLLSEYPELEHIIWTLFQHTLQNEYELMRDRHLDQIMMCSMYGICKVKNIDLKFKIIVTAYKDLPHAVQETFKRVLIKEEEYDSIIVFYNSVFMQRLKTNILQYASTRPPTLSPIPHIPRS

Experiment [5] concerns the target T5, Rb^P M761L (human, UniProt P06400 380-788, M761L).
T5 construct: also called variant 74
T5 sequence (looked up): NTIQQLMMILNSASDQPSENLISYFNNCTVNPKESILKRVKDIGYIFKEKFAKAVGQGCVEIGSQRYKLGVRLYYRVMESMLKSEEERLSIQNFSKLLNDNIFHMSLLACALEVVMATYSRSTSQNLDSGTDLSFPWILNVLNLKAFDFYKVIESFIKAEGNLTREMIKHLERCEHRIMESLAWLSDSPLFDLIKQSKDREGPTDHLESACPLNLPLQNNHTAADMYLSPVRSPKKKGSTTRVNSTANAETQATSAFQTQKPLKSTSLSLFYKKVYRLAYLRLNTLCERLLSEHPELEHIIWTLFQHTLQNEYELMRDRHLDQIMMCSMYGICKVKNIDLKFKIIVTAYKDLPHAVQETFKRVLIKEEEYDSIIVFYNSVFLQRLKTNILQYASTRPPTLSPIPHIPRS

B1: TMR-E2F1^TD, peptide of the E2F1 transactivation domain (peptide)
peptide: {TMR}-GEGIRDLFDCDFGDLTPLD
notes: also called E2F^TD; source: synthetic peptide, bought: GenScript
For B1, the Kd is 0.036 µM in experiment [1]; 0.022 µM in experiment [2]; 0.365 µM in experiment [3]; 0.026 µM in experiment [4]; 0.032 µM in experiment [5].

B2: TMR-E7^LxCxE, LxCxE peptide of the E7 oncoprotein from HPV (peptide)
peptide: DLYCYEQLN
modifications: also: TMR label, position not given here
notes: source: synthetic peptide, bought: GenScript
Turning to B2, the Kd worked out at 0.012 µM in experiment [1]; 0.005 µM in experiment [2]; 0.005 µM in experiment [3]; 0.01 µM in experiment [4]; 0.0013 µM in experiment [5].
